The data set deals with the molecule itself. The experiment in a line: thin section electron microscopy.

B1: FtsZ-mVenus (FtsZ with the YFP variant mVenus fused to the C terminus) (natural protein, E. coli, UniProt P0A9A6 1-383, looked up)
chain: MFEPMELTNDAVIKVIGVGGGGGNAVEHMVRERIEGVEFFAVNTDAQALRKTAVGQTIQIGSGITKGLGAGANPEVGRNAADEDRDALRAALEGADMVFIAAGMGGGTGTGAAPVVAEVAKDLGILTVAVVTKPFNFEGKKRMAFAEQGITELSKHVDSLITIPNDKLLKVLGRGISLLDAFGAANDVLKGAVQGIAELITRPGLMNVDFADVRTVMSEMGYAMMGSGVASGEDRAEEAAEMAISSPLLEDIDLSGARGVLVNITAGFDLRLDEFETVGNTIRAFASDNATVVIGTSLDPDMNDELRVTVVATGIGMDKRPEITLVTNKQVQQPVMDRYQQHGMAPLTQEQKPVAKVVNDNAPQTAKEPDYLDIPAFLRKQAD
Consider B1, for which the binding result is given as “binds”.

The values are drawn from paper PMC5310649 (Biochemistry, 2016).
